Test results taken from the supplement of paper PMC7125110.
± gives the standard error. This sample holds only a part of the variants without activity.

B1: glmS ribozyme (parent)
chain: AUAAAAGCGCCAGAACUACAGAAAUGUAGUUGACGAGGAGGAGGUUUAUCGAAUUUUCGGCGGAUGCCUCCAAA

Columns and labels:
Details in all cases: with glucosamine-6-phosphate
glucosamine-6-phosphate [1] = variants of: B1; assay: self-cleavage kobs at 640 uM GlcN6P; higher = faster cleavage; RNA array
Method in brief: (§1)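 Glucosamine-6-phosphate, from 40 μM to 10 mM in HEPES/KCl/Mg(OAc)2 buffer, was flowed over sequenced MiSeq chips carrying barcoded ribozyme variants transcribed in situ by E. coli RNA polymerase. A hybridised Cy3 probe tracked the variants at 37 °C as tiles were imaged over ~14 h. kobs, kcat and KM were obtained by fitting normalised per-tile medians to exponential decays and then applying weighted Michaelis–Menten fits across concentrations.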

glucosamine-6-phosphate [2] = variants of: B1; assay: self-cleavage kobs at 2500 uM GlcN6P; higher = faster cleavage; RNA array
Method in brief: as §1

glucosamine-6-phosphate [3] = variants of: B1; assay: self-cleavage kobs at 10000 uM GlcN6P; higher = faster cleavage; RNA array
Method in brief: as §1

Row | Variant | self-cleavage kobs at 640 uM GlcN6P (glucosamine-6-phosphate [1]) | self-cleavage kobs at 2500 uM GlcN6P (glucosamine-6-phosphate [2]) | self-cleavage kobs at 10000 uM GlcN6P (glucosamine-6-phosphate [3])
1 | A14U A36G U47A | < 1e-05 s⁻¹ | < 1e-05 s⁻¹ | 
2 | A14U U46C C70U | 0.000206 ± 5e-05 s⁻¹ |  | 
3 | A42U G44C C68U | < 1e-05 s⁻¹ | < 1e-05 s⁻¹ | 
4 | A12C U30C A39U | 0.000221 ± 4.3e-05 s⁻¹ | 0.000452 ± 0.00012 s⁻¹ | 
5 | U31A G32C C61U | < 1e-05 s⁻¹ |  | 
6 | C8U A33U G60U | < 1e-05 s⁻¹ | < 1e-05 s⁻¹ | 
7 | G29A U30A A42G A53G | 9.25e-05 ± 2.3e-05 s⁻¹ |  | 
8 | G29U A33C C50U U57A C61U | < 1e-05 s⁻¹ |  | 
9 | A42C G44U A64G C68G | < 1e-05 s⁻¹ |  | 
10 | G32U U56A C68G | 0.000222 ± 9e-05 s⁻¹ |  | 
11 | U45G U69C | 0.0407 ± 0.018 s⁻¹ |  | 
12 | G7C A14U U56A | < 1e-05 s⁻¹ | < 1e-05 s⁻¹ | 
13 | G9A C50U | < 1e-05 s⁻¹ | < 1e-05 s⁻¹ | < 1e-05 s⁻¹
14 | G32U U47A A53G U56A C71U | 7.91e-05 ± 2.4e-05 s⁻¹ | 0.000259 ± 6.2e-05 s⁻¹ | 
15 | C8G G35A U55C G60U C67A | < 1e-05 s⁻¹ | < 1e-05 s⁻¹ | 
16 | U46A C50G C58G | < 1e-05 s⁻¹ |  | 
17 | A12U G59C U69A | 0.00122 ± 0.00048 s⁻¹ |  | 
18 | C10A U30C G37U | < 1e-05 s⁻¹ |  | 
19 | A33C A42U | < 1e-05 s⁻¹ | < 1e-05 s⁻¹ | 
20 | G7U A14G G60C C70A | < 1e-05 s⁻¹ |  | 
21 | G51U C67U U69C | 5.75e-05 ± 2.5e-05 s⁻¹ |  | 
22 | C8A A14G G29A A36U | < 1e-05 s⁻¹ | < 1e-05 s⁻¹ | 
23 | A14C G41A G62U C70G | < 1e-05 s⁻¹ | < 1e-05 s⁻¹ | 
24 | G26U A42G U55C | 0.0103 ± 0.0029 s⁻¹ |  | 

Row | Variant | self-cleavage kobs at 640 uM GlcN6P (glucosamine-6-phosphate [1]) | self-cleavage kobs at 2500 uM GlcN6P (glucosamine-6-phosphate [2]) | self-cleavage kobs at 10000 uM GlcN6P (glucosamine-6-phosphate [3])
25 | A6G G29C G35U A42C C58G C68G | < 1e-05 s⁻¹ |  | 
26 | U31C A42U G44A | < 1e-05 s⁻¹ | < 1e-05 s⁻¹ | 
27 | A6C A42U C50U U57A G62C | < 1e-05 s⁻¹ |  | 
28 | A6C C8G C11A A52C U57G G63C U69G | 0.0016 ± 0.00077 s⁻¹ |  | 
29 | A36G G41C | < 1e-05 s⁻¹ |  | < 1e-05 s⁻¹
30 | C11U G38C G51U U65A | < 1e-05 s⁻¹ |  | 
31 | G60C C68G C70U | < 1e-05 s⁻¹ | < 1e-05 s⁻¹ | 
32 | U45A G51C G60A C71U | < 1e-05 s⁻¹ | < 1e-05 s⁻¹ | 
33 | U31A U55G C67U | 0.000859 ± 0.00023 s⁻¹ | 0.000519 ± 0.00025 s⁻¹ | 
34 | C16A G66U C68G | 6.61e-05 ± 2.5e-05 s⁻¹ | 6.82e-05 ± 2.8e-05 s⁻¹ | 
35 | G37C A48C C71G | < 1e-05 s⁻¹ |  | 
36 | G7U U46A C68U | < 1e-05 s⁻¹ | < 1e-05 s⁻¹ | 
37 | C34G U46A U49A | < 1e-05 s⁻¹ |  | 
38 | C10G C68G C71U | 3.95e-05 ± 1.7e-05 s⁻¹ |  | 
39 | A39G C67G C68G | 9.65e-05 ± 2.5e-05 s⁻¹ | 7.78e-05 ± 1.7e-05 s⁻¹ | 
40 | C11U A33C U55G C58U | < 1e-05 s⁻¹ |  | 
41 | G37U C61G | < 1e-05 s⁻¹ |  | < 1e-05 s⁻¹
42 | G9A G38A A42G U69G C70U C71A | < 1e-05 s⁻¹ |  | 
43 | C11U G41U A48G | < 1e-05 s⁻¹ |  | 
44 | C16U U46C U55A C70U | 0.00101 ± 0.00034 s⁻¹ | 0.00219 ± 0.0006 s⁻¹ | 0.00226 ± 0.00047 s⁻¹
45 | A53U U54A U56A C70G | 0.000134 ± 3e-05 s⁻¹ | 8.57e-05 ± 1.9e-05 s⁻¹ | 
46 | G7U C8U G40U G62C | < 1e-05 s⁻¹ |  | 
47 | A14U G37A A52U G60U | < 1e-05 s⁻¹ |  | 
48 | C8U A15U U46G G51A G66A | < 1e-05 s⁻¹ |  | 

Row | Variant | self-cleavage kobs at 640 uM GlcN6P (glucosamine-6-phosphate [1]) | self-cleavage kobs at 2500 uM GlcN6P (glucosamine-6-phosphate [2]) | self-cleavage kobs at 10000 uM GlcN6P (glucosamine-6-phosphate [3])
49 | A12G C16U U49A | < 1e-05 s⁻¹ |  | 
50 | G29C U45A C67A | 0.000165 ± 4.8e-05 s⁻¹ |  | 
51 | G41A U55C | 1.88e-05 ± 8.5e-06 s⁻¹ | 0.000105 ± 1.9e-05 s⁻¹ | 
52 | C16G A33U G38A G43U C67U | < 1e-05 s⁻¹ | < 1e-05 s⁻¹ | 
53 | U31C A52C C71A | < 1e-05 s⁻¹ |  | 
54 | C34G A36G C71U | < 1e-05 s⁻¹ |  | 
55 | G29C G51A C67G C68G U69G | 5.75e-05 ± 2.7e-05 s⁻¹ |  | 
56 | C11U A33C G41A | < 1e-05 s⁻¹ |  | 
57 | G13A C16G G29U G37A G40U | < 1e-05 s⁻¹ |  | 
58 | U65G A72C | 0.000308 ± 7.4e-05 s⁻¹ |  | 
59 | G43U G66U C71G | < 1e-05 s⁻¹ | < 1e-05 s⁻¹ | 
60 | U57G G62C C68U C70G | 4.22e-05 ± 2e-05 s⁻¹ |  | 
61 | C8A U31A G38C G40U C50G G60C C71A | < 1e-05 s⁻¹ |  | 
62 | C8G G13C G40A U56A G59U | < 1e-05 s⁻¹ |  | 
63 | C11G G29C G59C | < 1e-05 s⁻¹ |  | 
64 | G26U G60A C68A | 9.37e-05 ± 4.6e-05 s⁻¹ |  | 
65 | A33G C50G C68G | 0.00023 ± 6.4e-05 s⁻¹ | 0.000213 ± 4e-05 s⁻¹ | 
66 | C8A C11G G59C C61U | < 1e-05 s⁻¹ | < 1e-05 s⁻¹ | 
67 | G13A A48U U54C | < 1e-05 s⁻¹ |  | 
68 | C8U G13A G66U | < 1e-05 s⁻¹ | < 1e-05 s⁻¹ | 
69 | A36C U49G G63A | < 1e-05 s⁻¹ | < 1e-05 s⁻¹ | 
70 | C8G A15U U56C | < 1e-05 s⁻¹ | < 1e-05 s⁻¹ | < 1e-05 s⁻¹
71 | G41U A52C C71A | < 1e-05 s⁻¹ | < 1e-05 s⁻¹ | 
